Laboratory results: patent publication US20100086943

Tested on: fusion protein comprising the c-myc tag, a generic substrate recognized by the serine/threonine kinases and the FLAG tag, expressed from the pSEMS plasmid (Snaptag)

Substance: Cam kinase II (expressed from CamKII delta-pcDNA 3.1)
- phosphorylation of the substrate measured by TR-FRET after activation by ionomycin: in the presence of ionomycin, the signal measured is much greater than in its absence

Substance: kinase Akt1 (expressed from Akt1-pcDNA 3.1)
- phosphorylation of the substrate measured by TR-FRET (delta F): The co-transfection with the plasmid coding for the protein substrate and the plasmid coding for the kinase Akt1 makes it possible to increase the quantity of protein substrate phosphorylated specifically by Akt1
